The source of these data is paper PMC6426777.

In assay [1] the target is recombinant human PTX3 A48 allelic variant from HEK293 (human) (UniProt P26022). Nature of the assay: non-reducing SDS-PAGE; purified PTX3 on Tris acetate 3-8% gels without dithiothreitol, silver stain; disulfide-linked oligomers.
The target of assay [2] is recombinant human PTX3 (D at position 48) from CHO cells (human) (UniProt P26022).
For assay [3], the target named is recombinant C1q Lys^A200Asp-Lys^A201Asp mutant (human) (UniProt P02745). Nature of the assay: SPR; Biacore 3000, 25°C; C1q variants immobilised on CM5 chips by amine coupling; partners injected at 20 μl/min in 50 mM Tris-HCl, 150 mM NaCl, 2 mM CaCl2, 0.005% surfactant P20, pH 7.4; BSA reference surface; global fit to 1:1 Langmuir model; apparent KD = kd/ka.
The target of assay [4] is recombinant C1q Lys^C170Glu mutant (human) (UniProt P02745). The assay is described as above.
Assay [5] deals with recombinant C1q Tyr^B175Leu mutant (human) (UniProt P02745). Described as above.
In assay [6] the target is recombinant wild-type C1q (human) (UniProt P02745). The assay is described as above.
Assay [7] has as its target recombinant human PTX3 D48 allelic variant from HEK293 (human) (UniProt P26022). The assay is described as follows: non-reducing SDS-PAGE; purified PTX3 on Tris acetate 3-8% gels without dithiothreitol, silver stain; disulfide-linked oligomers.

recombinant C1q Lys^A200Asp-Lys^A201Asp mutant (human), sequence (P02745 other isoform, or with tags, fused parts or gaps mutant, chain 1 of 3): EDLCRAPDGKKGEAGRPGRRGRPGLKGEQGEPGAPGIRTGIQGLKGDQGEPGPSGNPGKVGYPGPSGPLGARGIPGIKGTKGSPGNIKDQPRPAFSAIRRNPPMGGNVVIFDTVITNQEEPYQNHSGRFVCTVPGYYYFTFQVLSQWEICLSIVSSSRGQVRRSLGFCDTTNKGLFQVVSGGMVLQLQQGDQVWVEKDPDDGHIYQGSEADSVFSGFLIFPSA
recombinant C1q Lys^A200Asp-Lys^A201Asp mutant (human), sequence (P02746 28-253, stated change not applied, chain 2 of 3, further chain): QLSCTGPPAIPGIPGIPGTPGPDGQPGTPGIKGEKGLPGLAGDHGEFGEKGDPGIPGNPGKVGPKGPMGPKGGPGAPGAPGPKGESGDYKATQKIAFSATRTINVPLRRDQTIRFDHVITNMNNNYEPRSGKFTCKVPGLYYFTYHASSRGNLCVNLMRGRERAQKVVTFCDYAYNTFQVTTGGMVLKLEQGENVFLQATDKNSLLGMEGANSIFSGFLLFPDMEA
recombinant C1q Lys^A200Asp-Lys^A201Asp mutant (human), sequence (P02747 29-245, stated change not applied, chain 3 of 3, further chain): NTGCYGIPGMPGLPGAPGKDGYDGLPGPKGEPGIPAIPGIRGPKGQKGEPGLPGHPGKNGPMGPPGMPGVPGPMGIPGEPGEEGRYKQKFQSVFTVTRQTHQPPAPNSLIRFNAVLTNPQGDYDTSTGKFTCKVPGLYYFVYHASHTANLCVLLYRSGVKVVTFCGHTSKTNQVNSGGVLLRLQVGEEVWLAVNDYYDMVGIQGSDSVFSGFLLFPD
recombinant C1q Lys^C170Glu mutant (human), sequence (P02745 23-245, change not shown, chain 1 of 3): as the sequence (P02745 other isoform, or with tags, fused parts or gaps mutant, chain 1 of 3) above, with D200K, D201K counted along it
recombinant C1q Lys^C170Glu mutant (human), sequence (P02746 28-253, change not shown, chain 2 of 3, further chain): as the sequence (P02746 28-253, stated change not applied, chain 2 of 3, further chain) above
recombinant C1q Lys^C170Glu mutant (human), sequence (P02747 other isoform, or with tags, fused parts or gaps mutant, chain 3 of 3, further chain): as the sequence (P02747 29-245, stated change not applied, chain 3 of 3, further chain) above, with K170E counted along it
recombinant C1q Tyr^B175Leu mutant (human), sequence (P02745 23-245, change not shown, chain 1 of 3): as the sequence (P02745 other isoform, or with tags, fused parts or gaps mutant, chain 1 of 3) above, with D200K, D201K counted along it
recombinant C1q Tyr^B175Leu mutant (human), sequence (P02746 other isoform, or with tags, fused parts or gaps mutant, chain 2 of 3, further chain): as the sequence (P02746 28-253, stated change not applied, chain 2 of 3, further chain) above, with Y175L counted along it
recombinant C1q Tyr^B175Leu mutant (human), sequence (P02747 29-245, change not shown, chain 3 of 3, further chain): as the sequence (P02747 29-245, stated change not applied, chain 3 of 3, further chain) above
recombinant wild-type C1q (human), sequence (P02745 23-245, chain 1 of 3): as the sequence (P02745 other isoform, or with tags, fused parts or gaps mutant, chain 1 of 3) above, with D200K, D201K counted along it
recombinant wild-type C1q (human), sequence (P02746 28-253, chain 2 of 3, further chain): as the sequence (P02746 28-253, stated change not applied, chain 2 of 3, further chain) above
recombinant wild-type C1q (human), sequence (P02747 29-245, chain 3 of 3, further chain): as the sequence (P02747 29-245, stated change not applied, chain 3 of 3, further chain) above

For “recombinant human PTX3 A48 allelic variant from HEK293 (from UniProt P26022 18-381) (natural protein)”, the stoichiometry N in assay [1] worked out at 8.
Regarding “recombinant C1q Arg^B108Asp-Arg^B109Glu mutant (from UniProt P02745 23-245; P02746 28-253; P02747 29-245) (complex)”, the PTX3-dependent complement activation: C4b deposition in PTX3-coated wells, C1q-depleted serum reconstituted with the C1q variant (4 μg/ml) (% of the signal obtained with C1qWT) in assay [2] worked out at 30. Moreover, the IgM-dependent complement activation: C4b deposition in IgM-coated wells, C1q-depleted serum reconstituted with the C1q variant (4 μg/ml) (% of the signal obtained with C1qWT) with human IgM (human) worked out at 9.
On to human IgM (antibody), for which the Kd in assay [3] came out at 3.31 nM; in assay [4] it was 2.48 nM; in assay [5] it was 0.892 nM; in assay [6], 1.92 nM. The koff in assay [3] came out at 0.00206 s⁻¹; in assay [4], 0.00167 s⁻¹; in assay [5], 0.00131 s⁻¹; in assay [6], 0.00154 s⁻¹. Moreover, the kon is 717000 M⁻¹ s⁻¹ in assay [3], 681000 M⁻¹ s⁻¹ in assay [4], 1.47e+06 M⁻¹ s⁻¹ in assay [5] and 919000 M⁻¹ s⁻¹ in assay [6].
As for “recombinant C1s-C1r-C1r-C1s tetramer (complex)”, in assay [4], the Kd was found to be 5.29 nM, the koff came to 0.00256 s⁻¹ and the kon was 486000 M⁻¹ s⁻¹. In addition, in assay [5], the Kd worked out at 6.75 nM, the koff is 0.00297 s⁻¹ and the kon is 440000 M⁻¹ s⁻¹. In addition, in assay [6], the Kd turned out to be 6.36 nM, the koff was 0.00288 s⁻¹ and the on-rate constant (kon) came to 435000 M⁻¹ s⁻¹.
For the substance “recombinant C1q Lys^A200Asp-Lys^A201Asp mutant (from UniProt P02745 23-245; P02746 28-253; P02747 29-245) (complex)”, the PTX3-dependent complement activation: C4b deposition in PTX3-coated wells, C1q-depleted serum reconstituted with the C1q variant (4 μg/ml) in assay [2] was 163 % of C1qWT.
For “recombinant C1q Tyr^B175Leu mutant (from UniProt P02745 23-245; P02746 28-253; P02747 29-245) (complex)”, the PTX3-dependent complement activation: C4b deposition in PTX3-coated wells, C1q-depleted serum reconstituted with the C1q variant (4 μg/ml) (% of the C1qWT value) in assay [2] was 44.5. Also, the IgM-dependent complement activation: C4b deposition in IgM-coated wells, C1q-depleted serum reconstituted with the C1q variant (4 μg/ml) (% of the C1qWT value) with human IgM (human) amounted to 61.4.
In the case of “recombinant human PTX3 D48 allelic variant from HEK293 (from UniProt P26022 18-381) (natural protein)”, the stoichiometry N in assay [7] stood at 8.
Turning to “recombinant human PTX3 (D at position 48) from CHO cells (from UniProt P26022 18-381) (natural protein)”, in assay [3], the Kd came out at 7.84 nM, the koff was 0.000634 s⁻¹ and the kon is 98300 M⁻¹ s⁻¹. In addition, in assay [4], the Kd amounted to 10.9 nM, the koff amounted to 0.00152 s⁻¹ and the kon amounted to 140000 M⁻¹ s⁻¹. In addition, in assay [6], the Kd turned out to be 5.65 nM, the koff turned out to be 0.000859 s⁻¹ and the kon worked out at 155000 M⁻¹ s⁻¹.

One may read the stoichiometry N as the number of molecules, sites or subunits per partner or assembly. By koff is commonly meant the first-order rate constant of dissociation. By kon is commonly meant the second-order rate constant of association.
